Consider one substance from article PMC3747071.

The assay addresses HA-tagged GW182 (Drosophila) (UniProt Q8SY33). The assay can be described thus: co-IP; lysate of stable S2 cells expressing HA-GW182 and Myc-HPat, treated with dsRNA against YFP (control), AGO1, NOT1, EDC4 and DCP1, or XRN1; anti-HA antibody (12CA5) cross-linked to protein A sepharose; washes with NET buffer with 300 mM NaCl; quantitative Western blot. On the technique in general: A western blot detects proteins with antibodies after separation by electrophoresis.
UniProt Q8SY33, sequence (Q8SY33 whole entry): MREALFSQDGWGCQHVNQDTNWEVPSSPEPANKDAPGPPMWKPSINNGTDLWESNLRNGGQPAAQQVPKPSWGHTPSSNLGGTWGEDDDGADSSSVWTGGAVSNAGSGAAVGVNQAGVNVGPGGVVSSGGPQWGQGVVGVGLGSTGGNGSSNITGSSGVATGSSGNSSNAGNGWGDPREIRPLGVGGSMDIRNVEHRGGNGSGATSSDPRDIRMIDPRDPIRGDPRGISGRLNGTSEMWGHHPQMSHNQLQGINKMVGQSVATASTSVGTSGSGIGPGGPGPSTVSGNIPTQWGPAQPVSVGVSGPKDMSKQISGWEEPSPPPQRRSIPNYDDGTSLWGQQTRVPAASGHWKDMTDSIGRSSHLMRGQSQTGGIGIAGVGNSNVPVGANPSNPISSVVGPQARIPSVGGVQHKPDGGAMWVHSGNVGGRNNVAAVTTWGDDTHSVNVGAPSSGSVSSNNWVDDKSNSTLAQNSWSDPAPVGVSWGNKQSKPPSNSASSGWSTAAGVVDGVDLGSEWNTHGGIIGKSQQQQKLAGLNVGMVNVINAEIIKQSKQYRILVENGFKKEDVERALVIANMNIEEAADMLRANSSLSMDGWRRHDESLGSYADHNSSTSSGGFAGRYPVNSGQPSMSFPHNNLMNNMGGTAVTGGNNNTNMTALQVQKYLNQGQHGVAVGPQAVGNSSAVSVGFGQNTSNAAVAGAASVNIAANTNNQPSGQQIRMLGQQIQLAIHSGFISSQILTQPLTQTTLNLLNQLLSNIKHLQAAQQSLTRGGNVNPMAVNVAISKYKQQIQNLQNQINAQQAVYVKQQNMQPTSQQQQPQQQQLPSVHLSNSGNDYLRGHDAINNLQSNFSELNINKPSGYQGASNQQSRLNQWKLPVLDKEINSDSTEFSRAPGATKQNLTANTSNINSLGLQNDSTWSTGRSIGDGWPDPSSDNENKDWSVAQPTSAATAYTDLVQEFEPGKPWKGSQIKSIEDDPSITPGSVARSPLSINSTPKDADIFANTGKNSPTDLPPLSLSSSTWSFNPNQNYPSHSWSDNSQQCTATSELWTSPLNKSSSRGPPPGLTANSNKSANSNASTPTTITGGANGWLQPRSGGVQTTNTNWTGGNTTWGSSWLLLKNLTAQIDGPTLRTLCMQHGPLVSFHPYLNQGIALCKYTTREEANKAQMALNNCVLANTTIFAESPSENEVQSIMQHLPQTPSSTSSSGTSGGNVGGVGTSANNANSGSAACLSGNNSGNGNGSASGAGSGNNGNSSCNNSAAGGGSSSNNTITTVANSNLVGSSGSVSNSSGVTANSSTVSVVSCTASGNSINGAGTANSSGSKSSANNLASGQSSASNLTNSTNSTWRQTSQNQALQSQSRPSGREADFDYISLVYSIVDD

Myc-tagged HPat (natural protein): the decrease of the Myc-HPat/HA-GW182 ratio in the immunoprecipitate, AGO1 knockdown cells against dsYFP control cells is 84.6% and the decrease of the Myc-HPat/HA-GW182 ratio in the immunoprecipitate, NOT1 knockdown cells against dsYFP control cells came to 69.7%.
